According to article PMC5065529, “Wnt Signalosome Assembly by DEP Domain Swapping of Dishevelled” (Molecular Cell, 2016):

B1: SNAP-FZD5 (Frizzled 5), wild type [human] / DEP_(414–507)-GFP, minimal DEP domain of DVL2 [human] (parent)
chain 1: GRGLSVHTDMASVTKAMAAPESGLEVRDRMWLKITIPNAFLGSDVVDWLYHHVEGFPERREARKYASGLLKAGLIRHTVNKITFSEQCYYVFGD
chain 2: ASKAPVCQEITVPMCRGIGYNLTHMPNQFNHDTQDEAGLEVHQFWPLVEIQCSPDLRFFLCSMYTPICLPDYHKPLPPCRSVCERAKAGCSPLMRQYGFAWPERMSCDRLPVLGRDAEVLCMDYNRSEATTAPPRPFPAKPTLPGPPGAPASGGECPAGGPFVCKCREPFVPILKESHPLYNKVRTGQVPNCAVPCYQPSFSADERTFATFWIGLWSVLCFISTSTTVATFLIDMERFRYPERPIIFLSACYLCVSLGFLVRLVVGHASVACSREHNHIHYETTGPALCTIVFLLVYFFGMASSIWWVILSLTWFLAAGMKWGNEAIAGYAQYFHLAAWLIPSVKSITALALSSVDGDPVAGICYVGNQNLNSLRGFVLGPLVLYLLVGTLFLLAGFVSLFRIRSVIKQGGTKTDKLEKLMIRIGIFTLLYTVPASIVVACYLYEQHYRESWEAALTCACPGHDTGQPRAKPEYWVLMLKYFMCLVVGITSGVWIWSGKTVESWRRFTSRCCCRPRRGHKSGGAMAAGDYPEASAALTGRTGPPGPAATYHKQVSLSHV

Variants of: B1
Test: FZD5-dependent PM recruitment of DEP-GFP (cell scoring)
Conditions: with DEP_(414–507)-GFP, 100 cells scored in each case

| Variant | screen value (parent: 52, read off a plot) | screen value (parent: 88, read off a plot) |
| --- | --- | --- |
| chain 2 ASKAPVCQEITVPMCRGIGYNLTHMPNQFNHDTQDEAGLEVHQFWPLVEIQCSPDLRFFLCSMYTPICLPDYHKPLPPCRSVCERAKAGCSPLMRQYGFAWPERMSCDRLPVLGRDAEVLCMDYNRSEATTAPPRPFPAKPTLPGPPGAPASGGECPAGGPFVCKCREPFVPILKESHPLYNKVRTGQVPNCAVPCYQPSFSADERTFATFWIGLWSVLCFISTSTTVATFLIDMERFRYPERPIIFLSACYLCVSLGFLVRLVVGHASVACSREHNHIHYETTGPALCTIVFLLVYFFGMASSIWWVILSLTWFLAAGMKWGNEAIAGYAQYFHLAAWLIPSVKSITALALSSVDGDPVAGICYVGNQNLNSLRGFVLGPLVLYLLVGTLFLLAGFVSLFRIRSVIKQGGTKTDKLEKLMIRIGIFTLLYTVPASIVVACYLYEQHYRESWEAALTCACPGHDTGQPRAKPEYWVLMLKYFMCLVVGITSGVWIWSGKTVESWRRFTARCCCRPRRGHKSGGAMAAGDYPEASAALTGRTGPPGPAATYHKQVSLSHV [chain 2 S509A] | 52 % of cells | 88 % of cells |
| chain 2 ASKAPVCQEITVPMCRGIGYNLTHMPNQFNHDTQDEAGLEVHQFWPLVEIQCSPDLRFFLCSMYTPICLPDYHKPLPPCRSVCERAKAGCSPLMRQYGFAWPERMSCDRLPVLGRDAEVLCMDYNRSEATTAPPRPFPAKPTLPGPPGAPASGGECPAGGPFVCKCREPFVPILKESHPLYNKVRTGQVPNCAVPCYQPSFSADERTFATFWIGLWSVLCFISTSTTVAAFLIDMERFRYPERPIIFLSACYLCVSLGFLVRLVVGHASVACSREHNHIHYETTGPALCTIVFLLVYFFGMASSIWWVILSLTWFLAAGMKWGNEAIAGYAQYFHLAAWLIPSVKSITALALSSVDGDPVAGICYVGNQNLNSLRGFVLGPLVLYLLVGTLFLLAGFVSLFRIRSVIKQGGTKTDKLEKLMIRIGIFTLLYTVPASIVVACYLYEQHYRESWEAALTCACPGHDTGQPRAKPEYWVLMLKYFMCLVVGITSGVWIWSGKTVESWRRFTSRCCCRPRRGHKSGGAMAAGDYPEASAALTGRTGPPGPAATYHKQVSLSHV [chain 2 T230A] | 1 % of cells | 12 % of cells |
| chain 2 ASKAPVCQEITVPMCRGIGYNLTHMPNQFNHDTQDEAGLEVHQFWPLVEIQCSPDLRFFLCSMYTPICLPDYHKPLPPCRSVCERAKAGCSPLMRQYGFAWPERMSCDRLPVLGRDAEVLCMDYNRSEATTAPPRPFPAKPTLPGPPGAPASGGECPAGGPFVCKCREPFVPILKESHPLYNKVRTGQVPNCAVPCYQPSFSADERTFATFWIGLWSVLCFISTSTTVATFLIDMERFRYPERPIIFLSACYLCVSLGFLVRLVVGHASVACSREHNHIHYETTGPALCTIVFLLVYFFGMASSIWWVILSLTWFLAAGMKWGNEAIAGYAQYFHLAAWLIPSVKSITALALSSVDGDPVAGICYVGNQNLNSLRGFVLGPLVLYLLVGTLFLLAGFVSLFRIRSVIKQGGTKTDKLEKLMIRIGIFTLLYTVPASIVVACYLYEQHYRESWEAALTCACPGHDTGQPRAKPEYWVLMLKYFMCLVVGITSGVWIWSGKAVESWRRFTSRCCCRPRRGHKSGGAMAAGDYPEASAALTGRTGPPGPAATYHKQVSLSHV [chain 2 T500A] | 6 % of cells | 36 % of cells |
